Source: paper PMC7954794, “Protein context shapes the specificity of SH3 domain-mediated interactions in vivo” (Nature Communications, 2021)

B1: YJR076C (protein, UniProt P32458 2-415, looked up)
Cell division control protein …: SGIIDASSALRKRKHLKRGITFTVMIVGQSGSGRSTFINTLCGQQVVDTSTTILLPTDTSTEIDLQLREETVELEDDEGVKIQLNIIDTPGFGDSLDNSPSFEIISDYIRHQYDEILLEESRVRRNPRFKDGRVHCCLYLINPTGHGLKEIDVEFIRQLGSLVNIIPVISKSDSLTRDELKLNKKLIMEDIDRWNLPIYNFPFDEDEISDEDYETNMYLRTLLPFAIIGSNEVYEMGGDVGTIRGRKYPWGILDVEDSSISDFVILRNALLISHLHDLKNYTHEILYERYRTEALSGESVAAESIRPNLTKLNGSSSSSTTTRRNTNPFKQSNNINNDVLNPASDMHGQSTGENNETYMTREEQIRLEEERLKAFEERVQQELLLKRQELLQREKELREIEARLEKEAKIKQEE
B2: YLR314C (protein, UniProt P32457 2-520, looked up)
Cell division control protein …: SLKEEQVSIKQDPEQEERQHDQFNDVQIKQESQDHDGVDSQYTNGTQNDDSERFEAAESDVKVEPGLGMGITSSQSEKGQVLPDQPEIKFIRRQINGYVGFANLPKQWHRRSIKNGFSFNLLCVGPDGIGKTTLMKTLFNNDDIEANLVKDYEEELANDQEEEEGQGEGHENQSQEQRHKVKIKSYESVIEENGVKLNLNVIDTEGFGDFLNNDQKSWDPIIKEIDSRFDQYLDAENKINRHSINDKRIHACLYFIEPTGHYLKPLDLKFMQSVYEKCNLIPVIAKSDILTDEEILSFKKTIMNQLIQSNIELFKPPIYSNDDAENSHLSERLFSSLPYAVIGSNDIVENYSGNQVRGRSYPWGVIEVDNDNHSDFNLLKNLLIKQFMEELKERTSKILYENYRSSKLAKLGIKQDNSVFKEFDPISKQQEEKTLHEAKLAKLEIEMKTVFQQKVSEKEKKLQKSETELFARHKEMKEKLTKQLKALEDKKKQLELSINSASPNVNHSPVPTKKKGFLR
B3: YPR055W (protein, UniProt P32855 1-1065, looked up)
Exocyst complex component SEC8: MDYLKPAQKGRRRGLSINSLSETQQSAMNSSLDHLQNDLNRINLQWNRILSDNTNPLELALAFLDDTSVGLGHRYEEFNQLKSQIGSHLQDVVNEHSQVFNTNVASYGKAVSSIMQAQEQTLNLKNCLKEANEKITTDKGSLQELNDNNLKYTKMIDVLVNIEELLQIPEKIEENIRKENFHQVQILLERGFILMNNKSLKTVEILKPINQQLELQEHLLFNNLIEEIHDIMYSKSNKTNFTRVTNNDIFKIISISHNGFTSLENYLYNIVNIDIMEHSKTINKNLEQFIHDQSLNKGNIMLQENAATQAPLAPSRNQENEGFNRIGFLLKTINNINKLPVAFNIITERAKEEIHNIIVKSTESIRSKHPSLLKMATSLKNDNHFGLPVQDILSIILRECFWEIFLKLLYAIQCHRAIFEMSNILQPTSSAKPAFKFNKIWGKLLDEIELLLVRYINDPELISSNNGSIKPINGATNNAPTLPKRKNPKIFSLEYNIEDNSSVKDQAFELKALLKDIFPGFSVSSNMDLDSIYVKDESFEQDEPLVPPSVFNMKVILDPFLLFTQSTSTIVPSVLTQNTISSLTFFDDYMNKSFLPKIQMTMDYLFTVEVESNNPYALELSDENHNIFKTALDFQRLFYNLLNVFNTANTFREKISYCILDLLNHFYNYYLGLFNSLIGTSDRHLTRKIITAWLQNGILMDQEQKILNGDETLFHEESIELFKEIPHFYQAGKGLSKSDLFNNLTLDTILQFSASVLWILNWLPGLKKAINIDEVSQEPMLDADRLRSSWTFSESMDLNYSNPSSSPNSLGNLKILLDDKASKKFDETIDGFKTLKFKLITILRFNIRALCIYDIGSFFQNTKIWNMDVGSIELDQNIASLISELRRTESKLKQQLPEKEKNSIFIGLDIVNNYALIKGAKSIKVLNHNGIKKMLRNVNVLQHAYRNLSSEPSKINMNVTMNFYSLCGSSEAELFEYIKDNELPHCSVEDLKTILRLQFSEEMHRQLKRQSTSSTKGSIKPSNKRYTEALEKLSNLEKEQSKEGARTKIGKLKSKLNAVHTANEK
B4: YER008C (protein, UniProt P33332 1-1336, looked up)
Exocyst complex component SEC3: MRSSKSPFKRKSHSRETSHDENTSFFHKRTISGSSAHHSRNVSQGAVPSSAPPVSGGNYSHKRNVSRASNSSQTSNFLAEQYERDRKAIINCCFSRPDHKTGEPPNNYITHVRIIEDSKFPSSRPPPDSKLENKKKRLLILSAKPNNAKLIQIHKARENSDGSFQIGRTWQLTELVRVEKDLEISEGFILTMSKKYYWETNSAKERTVFIKSLITLYIQTFEGHVPELVNWDLSLFYLDERSYQRAVITNRPGSVSPIKSPTSNFTTNTTQSVGSVPFSAPTERTRRSETESVNPVSTPASVEYHAGMKSLNKAPYSSNSTLNEVNKRYELEQQQQQEEAELRRLEEQKRLQLQKENEMKRLEEERRIKQEERKRQMELEHQRQLEEEERKRQMELEAKKQMELKRQRQFEEEQRLKKERELLEIQRKQREQETAERLKKEEQEALAKKEEEEKSKRNKVDNESYTQEINGKVDNLLEDLNAVLAEETETTPTMQNGTYVPERSTARAHDQLKKPLNIAKVESLGGSDLNDSISLSDEIAGLNTSNLSGEDQDEKNDLSFEKGDEVRYSNNFEGEAPHVYHEVSIIQEEAPAVSQKLILPEENNESEALIESKEEIKTMENIDDEVLLEILTDINWSIEDDADSMIERIDLRLAETEYLFNQNLLSLQKIGPNIRPYEDKVNDECHRIIPTLSLFLMEMSNFSNDIENVESQDNGLQVESANKKLLWNTLDELLKTVSLDEISLNQLLECPIREKNLPWMENQLNLLLKAFQAIGSDGNEVEYNLREISGLKQRLQFYEKVTKIFLNRIVEEMQKKFSNIRGQDISHDQMIRILTTLLIFSPLILFCKEISQKSYQAIVENWNVSIQPVYMELWTKKISQLQGIDTNDEKMNELSLSQLLNEWDTFRKERKTNDINPVFKNSFSLLTECLQTMRQECIVYQNFVEVFFHISSKHNFEEYIKHFNDPDAPPILLDTVKVMQSDREAAVIETQLVSRIFQPIVTRLSSYFVELVKAEPTVAPALTFYLENEIKSLESSNHEFLLSAVTRMYTQIKQVWSDNVEEQVLHFERISNATTNGEILPGILDLPVGLKNSEDLFQFAKRSMDIKDTDEGYESIELMNSSFRKLSIAATRSITHKEVNSSINPNLSDTAALNNDYMETISLLVNSNWLTEMLSMLNFNKDGIFDTSLQNVKKVFDVEKESYASFLLRDTMPKLTAFVYGVSNIIENTNNVNMTNPSRWAAYSRQNLENILLAYTSHEIETLVKRLHTHMVNDFGYHQENAINNVLCDKLWSCIQGQTVSLYLKLYTVIDKHYRGTNIRFTKNDIISAFEEYKNA
B5: YDL225W (protein, UniProt Q07657 2-551, looked up)
Seventh homolog of septin 1: STASTPPINLFRRKKEHKRGITYTMLLCGPAGTGKTAFANNLLETKIFPHKYQYGKSNASISSNPEVKVIAPTKVVSFNSKNGIPSYVSEFDPMRANLEPGITITSTSLELGGNKDQGKPEMNEDDTVFFNLIMTHGIGENLDDSLCSEEVMSYLEQQFDIVLAEETRIKRNPRFEDTRVHVALYFIEPTGHGLREVDVELMKSISKYTNVLPIITRADSFTKEELTQFRKNIMFDVERYNVPIYKFEVDPEDDDLESMEENQALASLQPFAIITSDTRDSEGRYVREYPWGIISIDDDKISDLKVLKNVLFGSHLQEFKDTTQNLLYENYRSEKLSSVANAEEIGPNSTKRQSNAPSLSNFASLISTGQFNSSQTLANNLRADTPRNQVSGNFKENEYEDNGEHDSAENEQEMSPVRQLGREIKQENENLIRSIKTESSPKFLNSPDLPERTKLRNISETVPYVLRHERILARQQKLEELEAQSAKELQKRIQELERKAHELKLREKLINQNKLNGSSSSINSLQQSTRSQIKKNDTYTDLASIASGRD
B6: YBR102C (protein, UniProt P38261 1-753, looked up)
Exocyst complex component …: MVEFSLKKARNNWKHVKKSASSPAKQKTPPSPAKPKQKTKKNPYSDLKDPATSYTLPTINARERSRVATSMQRRLSIHNTNYAPPTLDYSMPLPDMPNMIVPNDNVDSSHNNSSFTTENESVSSKGPSNSLNLSTADLSLNDSSYNKVPARSAMRNTVNPSGSNDPFNNSTSLRKMLANPHFNAKDFVHDKLGNASAITIDKFTSNLTDLSIQVQEEVKLNINKSYNEIMTVNNDLNVAMLELKRVRANINDLNEVLDQCTKIAEKRLQLQDQIDQERQGNFNNVESHSNSPALLPPLKAGQNGNLMRRDRSSVLILEKFWDTELDQLFKNVEGAQKFINSTKGRHILMNSANWMELNTTTGKPLQMVQIFILNDLVLIADKSRDKQNDFIVSQCYPLKDVTVTQEEFSTKRLLFKFSNSNSSLYECRDADECSRLLDVIRKAKDDLCDIFHVEEENSKRIRESFRYLQSTQQTPGRENNRSPNKNKRRSMGGSITPGRNVTGAMDQYLLQNLTLSMHSRPRSRDMSSTAQRLKFLDEGVEEIDIELARLRFESAVETLLDIESQLEDLSERISDEELMLLNLISLKIEQRREAISSKLSQSILSSNEIVHLKSGTENMIKLGLPEQALDLFLQNRSNFIQDLILQIGSVDNPTNYLTQLAVIRFQTIKKTVEDFQDIFKELGAKISSILVDWCSDEVDNHFKLIDKQLLNDEMLSPGSIKSSRKQIDGLKAVGLDFVYKLDEFIKKNSDKIR

system: ABP1; assay: DHFR-PCA on solid medium, bait ABP1 (Fig. 1B); type: cell-based, Saccharomyces cerevisiae; conditions: bait ABP1, label = prey; 2-4 replicates
Text: (§1) Supplement 41467_2021_21873_MOESM8_ESM.xlsx, sheet "Fig1B" | column: medsize; medrep; Ratio; Score

In order of falling “medrep (log2 median colony size normalized to plate background, PCA score)” value:
1. B2  4.381
2. B5  2.276
3. B1  2.021
4. B4  1.509
5. B3  1.475

same assay, conditions: bait ABP1, label = prey; only significant differences showed; PPIs completely lost have a ratio of 0.1 and the gained PPIs 2.5

In order of rising “Ratio (SH3-deleted/WT medrep)” value:
1. B3  0.1
2. B1  1.374
3. B4  2.5

system: BEM1-1; assay: DHFR-PCA on solid medium, bait BEM1-1 (Fig. 1B); type: cell-based, Saccharomyces cerevisiae; conditions: bait BEM1-1, label = prey; 2-8 replicates
Text: as §1

In order of rising “medrep (log2 median colony size normalized to plate background, PCA score)” value:
1. B3  1.322
2. B6  1.504
3. B4  1.89
4. B5  2.78
5. B1  3.2032
6. B2  3.511

same assay, conditions: bait BEM1-1, label = prey; only significant differences showed; PPIs completely lost have a ratio of 0.1 and the gained PPIs 2.5

In order of falling “Ratio (SH3-deleted/WT medrep)” value:
1. B6  0.1
2. B3  0.1
3. B4  0.1

system: BEM1-2; assay: DHFR-PCA on solid medium, bait BEM1-2 (Fig. 1B); type: cell-based, Saccharomyces cerevisiae; conditions: bait BEM1-2, label = prey; 2-8 replicates
Text: as §1

In order of rising “medrep (log2 median colony size normalized to plate background, PCA score)” value:
1. B3  1.322
2. B6  1.504
3. B2  1.7566
4. B1  1.843
5. B4  1.89
6. B5  2.78

same assay, conditions: bait BEM1-2, label = prey; only significant differences showed; PPIs completely lost have a ratio of 0.1 and the gained PPIs 2.5

In order of rising “Ratio (SH3-deleted/WT medrep)” value:
1. B6  0.1
2. B3  0.1
3. B4  0.1
4. B5  0.1
5. B2  0.5003
6. B1  0.5753
